Reference: patent publication US20250339531A1, “DUX4 POLYPEPTIDES AND NUCLEIC ACIDS FOR TREATING INFLAMMATORY AND AUTOIMMUNE CONDITIONS” (Fred Hutchinson Cancer Center, priority 2021, published 2025)

Key:
Assay in all cases: anti-FLAG co-IP LC-MS, exp 3, +IFNg +Dox
[1] = target: 26S proteasome non-ATPase regulatory subunit 2 (Homo sapiens) (UniProt Q13200)
[2] = target: 40S ribosomal protein S14 (Homo sapiens) (UniProt P62263)
[3] = target: 40S ribosomal protein S3a (Homo sapiens) (UniProt P61247)
[4] = target: 40S ribosomal protein S4, X isoform (Homo sapiens) (UniProt P62701)
[5] = target: 40S ribosomal protein S8 (Homo sapiens) (UniProt P62241)
[6] = target: 4F2 cell-surface antigen heavy chain (Homo sapiens) (UniProt P08195)
[7] = target: 60S ribosomal protein L29 (Homo sapiens) (UniProt P47914)
[8] = target: 60S ribosomal protein L8 (Homo sapiens) (UniProt P62917)
[9] = target: AP-2 complex subunit alpha-1 (Homo sapiens) (UniProt O95782)
[10] = target: AP-2 complex subunit beta (Homo sapiens) (UniProt P63010)
[11] = target: ATP synthase subunit alpha, mitochondrial (Homo sapiens) (UniProt P25705)
[12] = target: Antigen peptide transporter 1 (Homo sapiens) (UniProt Q03518)
[13] = target: Aspartyl/asparaginyl beta-hydroxylase (Homo sapiens) (UniProt Q12797)
[14] = target: Caprin-1 (Homo sapiens) (UniProt Q14444)
[15] = target: Clathrin heavy chain (Homo sapiens) (UniProt Q00610)
[16] = target: Endoplasmic reticulum chaperone BiP (Homo sapiens) (UniProt P11021)
[17] = target: Eukaryotic translation initiation factor 3 subunit A (Homo sapiens) (UniProt Q14152)
[18] = target: Importin subunit beta-1 (Homo sapiens) (UniProt Q14974)
[19] = target: KN motif and ankyrin repeat domain-containing protein 2 (Homo sapiens) (UniProt Q63ZY3)
[20] = target: Myosin regulatory light chain 12A (Homo sapiens) (UniProt J3QRS3)
[21] = target: Myosin-9 (Homo sapiens) (UniProt P35579)
[22] = target: Neuroblast differentiation-associated protein AHNAK (Homo sapiens) (UniProt Q09666)
[23] = target: Neutral cholesterol ester hydrolase 1 (Homo sapiens) (UniProt Q6PIU2)
[24] = target: Plectin (Homo sapiens) (UniProt Q15149)
[25] = target: Probable ubiquitin carboxyl-terminal hydrolase FAF-X (Homo sapiens) (UniProt Q93008)
[26] = target: Procollagen-lysine,2-oxoglutarate 5-dioxygenase 2 (Homo sapiens) (UniProt O00469)
[27] = target: Prolyl 4-hydroxylase subunit alpha-1 (Homo sapiens) (UniProt P13674)
[28] = target: Ribosome-binding protein 1 (Homo sapiens) (UniProt Q9P2E9)
[29] = target: Serine/threonine-protein phosphatase 2A 65 kDa regulatory subunit A alpha isoform (Homo sapiens) (UniProt P30153)
[30] = target: Spectrin alpha chain, non-erythrocytic 1 (Homo sapiens) (UniProt Q13813)
[31] = target: Spectrin beta chain (Homo sapiens) (UniProt Q01082)
[32] = target: T-complex protein 1 subunit theta (Homo sapiens) (UniProt P50990)
[33] = target: Tubulin alpha chain (Homo sapiens) (UniProt F5H5D3)
[34] = target: Tubulin beta chain (Homo sapiens) (UniProt P07437)
[35] = target: Tubulin beta-6 chain (Homo sapiens) (UniProt Q9BUF5)
[36] = target: Vimentin (Homo sapiens) (UniProt P08670)

Chain of Endoplasmic reticulum chaperone BiP (Homo sapiens) (P11021 19-654 limits assumed): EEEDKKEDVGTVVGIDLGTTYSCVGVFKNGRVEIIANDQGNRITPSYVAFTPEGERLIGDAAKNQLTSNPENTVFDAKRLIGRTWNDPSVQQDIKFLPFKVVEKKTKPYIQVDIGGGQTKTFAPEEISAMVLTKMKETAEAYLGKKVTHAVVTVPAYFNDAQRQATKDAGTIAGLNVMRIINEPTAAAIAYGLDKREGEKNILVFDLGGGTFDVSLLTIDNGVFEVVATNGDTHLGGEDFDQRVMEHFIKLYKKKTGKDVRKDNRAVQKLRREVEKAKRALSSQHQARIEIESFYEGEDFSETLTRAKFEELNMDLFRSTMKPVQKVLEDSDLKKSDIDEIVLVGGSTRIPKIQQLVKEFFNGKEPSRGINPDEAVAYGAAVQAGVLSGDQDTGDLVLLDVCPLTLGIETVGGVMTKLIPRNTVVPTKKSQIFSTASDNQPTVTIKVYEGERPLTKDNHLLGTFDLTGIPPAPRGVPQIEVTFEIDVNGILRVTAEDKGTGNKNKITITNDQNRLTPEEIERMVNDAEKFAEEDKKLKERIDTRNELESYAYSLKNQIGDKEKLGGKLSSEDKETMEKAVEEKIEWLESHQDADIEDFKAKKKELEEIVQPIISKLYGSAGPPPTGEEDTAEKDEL
Chain of T-complex protein 1 subunit theta (Homo sapiens) (P50990 2-548 limits assumed, one chain of several): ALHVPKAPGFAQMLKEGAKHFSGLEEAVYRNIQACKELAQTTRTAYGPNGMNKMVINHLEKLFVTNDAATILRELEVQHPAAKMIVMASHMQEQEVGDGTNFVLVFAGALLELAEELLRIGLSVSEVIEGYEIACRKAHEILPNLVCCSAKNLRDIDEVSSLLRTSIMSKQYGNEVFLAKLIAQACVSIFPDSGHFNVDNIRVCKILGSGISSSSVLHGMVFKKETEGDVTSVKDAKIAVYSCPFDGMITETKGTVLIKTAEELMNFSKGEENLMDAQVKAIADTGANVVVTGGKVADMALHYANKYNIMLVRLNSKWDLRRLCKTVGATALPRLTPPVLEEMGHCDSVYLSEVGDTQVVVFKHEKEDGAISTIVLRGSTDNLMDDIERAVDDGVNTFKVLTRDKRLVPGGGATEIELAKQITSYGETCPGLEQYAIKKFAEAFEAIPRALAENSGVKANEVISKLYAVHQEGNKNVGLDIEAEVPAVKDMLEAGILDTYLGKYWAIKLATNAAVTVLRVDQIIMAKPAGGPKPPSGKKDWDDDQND
Chain of Serine/threonine-protein phosphatase 2A 65 kDa regulatory subunit A alpha isoform (Homo sapiens) (P30153 2-589 limits assumed): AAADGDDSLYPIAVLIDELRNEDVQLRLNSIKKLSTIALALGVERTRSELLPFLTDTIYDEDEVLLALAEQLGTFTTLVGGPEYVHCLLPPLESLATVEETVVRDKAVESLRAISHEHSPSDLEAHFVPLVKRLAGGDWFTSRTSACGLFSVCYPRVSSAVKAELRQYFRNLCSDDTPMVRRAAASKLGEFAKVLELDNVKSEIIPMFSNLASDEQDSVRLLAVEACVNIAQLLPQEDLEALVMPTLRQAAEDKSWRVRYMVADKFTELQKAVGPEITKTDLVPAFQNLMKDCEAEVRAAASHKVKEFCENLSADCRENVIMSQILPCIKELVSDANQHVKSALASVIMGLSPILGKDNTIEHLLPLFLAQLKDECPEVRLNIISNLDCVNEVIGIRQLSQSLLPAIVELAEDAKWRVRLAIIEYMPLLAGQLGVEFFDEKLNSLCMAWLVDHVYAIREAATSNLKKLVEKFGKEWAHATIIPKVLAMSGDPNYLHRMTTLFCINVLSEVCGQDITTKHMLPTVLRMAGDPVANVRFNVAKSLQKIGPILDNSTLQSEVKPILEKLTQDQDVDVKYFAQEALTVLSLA
Chain of Aspartyl/asparaginyl beta-hydroxylase (Homo sapiens) (Q12797 whole entry): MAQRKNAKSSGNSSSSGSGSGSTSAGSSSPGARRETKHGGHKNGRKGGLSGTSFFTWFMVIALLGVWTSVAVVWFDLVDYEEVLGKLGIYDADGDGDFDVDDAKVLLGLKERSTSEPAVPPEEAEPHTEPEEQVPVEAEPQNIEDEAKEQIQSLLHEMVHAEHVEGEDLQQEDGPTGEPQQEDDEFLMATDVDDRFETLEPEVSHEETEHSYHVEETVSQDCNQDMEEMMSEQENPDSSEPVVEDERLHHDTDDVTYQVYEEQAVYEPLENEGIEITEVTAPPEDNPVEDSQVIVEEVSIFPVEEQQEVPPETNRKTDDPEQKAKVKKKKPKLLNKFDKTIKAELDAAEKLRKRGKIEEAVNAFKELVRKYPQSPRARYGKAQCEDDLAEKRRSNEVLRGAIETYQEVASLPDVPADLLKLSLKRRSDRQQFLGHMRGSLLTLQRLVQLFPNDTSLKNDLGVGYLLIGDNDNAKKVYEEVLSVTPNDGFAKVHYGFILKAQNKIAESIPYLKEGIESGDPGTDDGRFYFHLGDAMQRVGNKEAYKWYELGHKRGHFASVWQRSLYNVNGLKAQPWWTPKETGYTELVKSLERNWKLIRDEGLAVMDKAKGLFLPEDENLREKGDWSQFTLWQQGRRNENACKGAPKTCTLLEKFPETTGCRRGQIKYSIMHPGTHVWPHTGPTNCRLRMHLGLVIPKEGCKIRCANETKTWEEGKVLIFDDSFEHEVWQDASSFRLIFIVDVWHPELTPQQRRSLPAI
Chain of Ribosome-binding protein 1 (Homo sapiens) (Q9P2E9 whole entry, canonical isoform): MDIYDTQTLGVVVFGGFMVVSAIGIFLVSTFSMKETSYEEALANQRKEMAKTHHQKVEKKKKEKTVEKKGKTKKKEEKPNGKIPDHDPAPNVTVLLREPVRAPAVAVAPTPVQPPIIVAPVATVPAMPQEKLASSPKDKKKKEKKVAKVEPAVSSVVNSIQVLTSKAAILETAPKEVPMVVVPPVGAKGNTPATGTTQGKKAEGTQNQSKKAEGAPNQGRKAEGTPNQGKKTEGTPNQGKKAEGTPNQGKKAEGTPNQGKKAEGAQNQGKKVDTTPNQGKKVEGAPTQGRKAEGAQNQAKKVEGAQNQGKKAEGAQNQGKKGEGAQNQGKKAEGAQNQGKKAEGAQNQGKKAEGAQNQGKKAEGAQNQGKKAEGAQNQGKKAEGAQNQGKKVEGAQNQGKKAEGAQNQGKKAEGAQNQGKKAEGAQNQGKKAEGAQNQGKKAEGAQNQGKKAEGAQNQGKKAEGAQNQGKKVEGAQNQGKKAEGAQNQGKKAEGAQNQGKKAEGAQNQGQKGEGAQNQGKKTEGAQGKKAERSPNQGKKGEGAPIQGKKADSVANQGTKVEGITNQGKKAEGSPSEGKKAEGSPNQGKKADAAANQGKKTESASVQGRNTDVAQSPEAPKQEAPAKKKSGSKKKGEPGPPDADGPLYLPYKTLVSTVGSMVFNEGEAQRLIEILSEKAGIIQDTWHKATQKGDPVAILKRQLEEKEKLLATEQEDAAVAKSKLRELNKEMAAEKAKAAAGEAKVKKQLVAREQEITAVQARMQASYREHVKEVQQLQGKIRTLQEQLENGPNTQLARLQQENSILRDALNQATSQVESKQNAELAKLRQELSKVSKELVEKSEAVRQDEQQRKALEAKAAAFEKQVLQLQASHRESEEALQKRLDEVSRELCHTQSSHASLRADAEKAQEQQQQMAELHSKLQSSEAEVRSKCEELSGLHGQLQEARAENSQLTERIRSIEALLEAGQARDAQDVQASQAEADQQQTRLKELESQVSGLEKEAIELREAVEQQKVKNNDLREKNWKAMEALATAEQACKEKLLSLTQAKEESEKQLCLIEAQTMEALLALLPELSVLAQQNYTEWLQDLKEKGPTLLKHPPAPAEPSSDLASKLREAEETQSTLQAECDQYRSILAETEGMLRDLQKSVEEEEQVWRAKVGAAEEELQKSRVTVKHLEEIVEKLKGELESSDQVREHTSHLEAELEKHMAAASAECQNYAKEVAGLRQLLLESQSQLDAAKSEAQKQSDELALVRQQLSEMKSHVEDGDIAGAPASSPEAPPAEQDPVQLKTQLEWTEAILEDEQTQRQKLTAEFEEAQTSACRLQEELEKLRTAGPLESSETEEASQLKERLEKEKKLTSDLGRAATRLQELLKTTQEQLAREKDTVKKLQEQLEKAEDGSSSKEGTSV
Chain of Prolyl 4-hydroxylase subunit alpha-1 (Homo sapiens) (P13674 18-534 limits assumed): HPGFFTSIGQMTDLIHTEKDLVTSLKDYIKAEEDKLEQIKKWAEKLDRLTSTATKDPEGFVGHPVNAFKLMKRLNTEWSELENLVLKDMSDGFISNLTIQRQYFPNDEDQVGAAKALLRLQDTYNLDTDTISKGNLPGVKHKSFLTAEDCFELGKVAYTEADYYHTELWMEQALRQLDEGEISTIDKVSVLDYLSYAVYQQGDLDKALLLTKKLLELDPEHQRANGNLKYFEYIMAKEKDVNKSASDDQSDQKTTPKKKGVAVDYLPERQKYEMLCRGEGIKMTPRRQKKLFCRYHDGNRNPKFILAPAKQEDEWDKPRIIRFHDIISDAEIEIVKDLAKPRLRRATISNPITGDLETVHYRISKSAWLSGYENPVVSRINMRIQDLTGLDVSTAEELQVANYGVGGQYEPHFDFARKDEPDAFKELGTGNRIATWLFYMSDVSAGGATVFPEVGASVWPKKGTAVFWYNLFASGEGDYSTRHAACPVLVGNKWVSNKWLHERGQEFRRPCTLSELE
Chain of Neutral cholesterol ester hydrolase 1 (Homo sapiens) (Q6PIU2 whole entry): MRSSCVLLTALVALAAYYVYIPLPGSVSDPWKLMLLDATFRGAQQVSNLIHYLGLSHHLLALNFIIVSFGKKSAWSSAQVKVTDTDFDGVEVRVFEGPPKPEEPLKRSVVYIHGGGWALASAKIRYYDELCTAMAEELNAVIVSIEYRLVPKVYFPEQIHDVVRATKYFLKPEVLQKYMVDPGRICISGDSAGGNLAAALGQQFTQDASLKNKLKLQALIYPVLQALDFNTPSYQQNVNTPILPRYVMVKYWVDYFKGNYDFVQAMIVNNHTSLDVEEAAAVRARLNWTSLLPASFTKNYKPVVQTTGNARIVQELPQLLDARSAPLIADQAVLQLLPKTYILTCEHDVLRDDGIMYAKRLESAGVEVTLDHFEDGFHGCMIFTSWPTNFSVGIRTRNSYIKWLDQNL
Chain of Myosin regulatory light chain 12A (Homo sapiens) (J3QRS3 entry or part of it limits assumed, form in doubt): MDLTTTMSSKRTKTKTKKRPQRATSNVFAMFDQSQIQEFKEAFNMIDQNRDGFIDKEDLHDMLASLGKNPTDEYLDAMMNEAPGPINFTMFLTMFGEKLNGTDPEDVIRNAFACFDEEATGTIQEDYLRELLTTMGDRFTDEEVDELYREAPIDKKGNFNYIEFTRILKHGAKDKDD

## i3XFLAG-NLS-CTDaa154-424
[1]
  PSMs: 3 PSMs
[2]
  PSMs: 3 PSMs
[3]
  PSMs: 5 PSMs
[4]
  PSMs: 2 PSMs
[5]
  PSMs: 6 PSMs
[6]
  PSMs: 2 PSMs
[7]
  PSMs: 2 PSMs
[8]
  PSMs: 2 PSMs
[9]
  PSMs: 31 PSMs
[10]
  PSMs: 26 PSMs
[11]
  PSMs: 2 PSMs
[12]
  PSMs: 3 PSMs
[13]
  PSMs: 9 PSMs
[14]
  PSMs: 5 PSMs
[15]
  PSMs: 11 PSMs
[16]
  PSMs: 62 PSMs
[17]
  PSMs: 2 PSMs
[18]
  PSMs: 5 PSMs
[19]
  PSMs: 3 PSMs
[20]
  PSMs: 3 PSMs
[21]
  PSMs: 242 PSMs
[22]
  PSMs: 4 PSMs
[23]
  PSMs: 11 PSMs
[24]
  PSMs: 21 PSMs
[25]
  PSMs: 5 PSMs
[26]
  PSMs: 3 PSMs
[27]
  PSMs: 5 PSMs
[28]
  PSMs: 68 PSMs
[29]
  PSMs: 14 PSMs
[30]
  PSMs: 10 PSMs
[31]
  PSMs: 9 PSMs
[32]
  PSMs: 2 PSMs
[33]
  PSMs: 47 PSMs
[34]
  PSMs: 75 PSMs
[35]
  PSMs: 39 PSMs
[36]
  PSMs: 45 PSMs
